# Source: the domain aggregation screens of Martell et al. (2025)
# Experiment: soluble fraction after stress (log2 fold change); higher = more stays soluble; pooled small domains, quantitative proteomics
# Conditions: stress: pH 4
# Method in brief: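 After pH 4 stress, pooled custom libraries of small protein domains were quantified with high-throughput quantitative proteomics. Aggregation propensity is taken from the fold change in each domain's soluble amount following the acid stress. The scale is log2, where higher values mean more stayed soluble.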
row,Sequence,soluble fraction (log2)
1,HMTNEPRLTNMGFNKMLIENYKMILEYQDFFIRISTQIGIININGFDLKLGEMTADEVLVTGKIESIDL,≥ 0.43
2,HMTNIDRLIGQTAIVKETINNKKEQGVVRINGMDWTARTEEIDEVILKGKPVEILDIQGIKLIVRKK,0.161
3,HMTNIELYQRLLNLGFTPAQAKILLVQYDETRLTDNLNYVDFKKQQGNIENLPAYTTTIIKKDVRL,0.0954
4,HMTNIQFINLKMTDNHPWIHQYIKDIILPPQTRIVMIKRNDIKTIPKGERRIEKDDELILSAFESQT,-1.27
5,HMTNKKIILEIFQNSDKPLIVEEISKKMFEKTGKKMILSTIYRNLKNMEDVGILKKIYNEDGSYMYIF,-1.07
6,HMTNKQEYAYQWLKSSIIENKIKPSTLLVERHLSEMLHISRTPVRTALMRLADEGFVVISPGRGMVVA,-0.0492
7,HMTNQEFNAAFKPFLDYFPTTEMTKEKINIYYLALSDLSKEQLGSAFISMVKNRVYKNFPQVAEIRQYATN,-0.456
8,HMTNTDYPGKVVPVDPDGKTLKPDGDASYNDKPGTKVKTPTVPGYTAEVPNVEVPVGGGDIKVTYHKKPV,0.0461
9,HMTNVYSLIGKRGIVVEDIDWQKGTGQVKIDGELWSVKTNEQINISKGTEVEVENIEGVKVFVKPI,-0.458
10,HMTNYGTVRPGARGQAVTALQQALIRHGYKLTADGIYGRATRQAVRAFQQKHKLKVDGIVGSKTWALLLAD,-0.0192
11,HMTPDGNATVWSANGYGVRLRTGPGKGYAIIGVYSVGTTVKVLERGPAGGWDHIQVGSRVGYMMNEFLHYY,0.422
12,HMTPDLSEFKERLRQILPGEPIEVRTANDGIVLSGTVTSIAALDRALDLAERYAPDKVSNLLSVG,0.365
13,HMTPELTAEEREVLSLLGDEPRTLAELIAASGRDYAALSVLLMGLELSQAVRQLPGNRYERF,-1.36
14,HMTPGPFLVYITGAVERPNVLVTLDYGSRVIDALNAAGGSRIDANLDLVNLAQRLVDGDQIHVPTLR,-1.1
15,HMTPGPYETLKPAPLGSYIEPKIGFATAIEIARKEAVQLGIKTEAGGIWYGGDFPFYNVSFFDPDD,-0.985
16,HMTPKVTVPDVTGQTFSSAKQILESLGFTVKQQGSTDETDQVIDQNPTSGEADKGATITLTTKSS,-0.139
17,HMTPPAQQPHEGLPTDETATDAKTLVQKSRWWLEEEQRQREAGNTAYAERIRLALIQLLYRAERA,0.0525
18,HMTPQNAAAVLRYLSSGAIKGVGPSTAQRIVEKFGAESLDIIQNKPEELATIRGISLSKALAVSEEYNKQY,0.0689
19,HMTPTFSNQDLIKAGLAGSPVAKRRRERLGELLGIGYGNAKQLLKRLDLFAIDRPTFERAVAQLDQEGK,0.414
20,HMTPVSQIATKDIEEKIDSLSDEYKDPFILHFKGFKYKEIADQLDIPIGTVKSRIFIARKKLIDLLPDY,-0.391
21,HMTQEHDESVNLGKRLLDQALSRFGTSYRQLKKSEIKRILQSSGASTFKYILHQIGLGNRVPLAIANLIV,-0.0152
22,HMTQEMPAEVKKKADAFNNAMDEENYTEAKAILAELEQNTAPSYPLLLQMQTRYAFETASWE,-0.974
23,HMTQFSASSERAGAGGAYRTTLRAMEQNGDLLQISILLPDAVTAKHAATVWPERAQAIYTAILSELLK,-0.167
24,HMTQGIDQISFSQFLDKVQSGEVTDVRISGSDITGTLKTGGKFETVAGNYEKIWDLLRENKVVFVVDSP,-0.309
25,HMTQNSAITNRVLYMQRTLRQYGYAVPESGNFDRTTRAHAAEFLYNATGLPVRENQSVQEFYRAFQRVQG,0.203
26,HMTQRRLQSELDSIPGVGAGTRTKLLRTLGSVDAVLRASEAELLAAGANRRQVASIQAHAAAVER,0.0567
27,HMTQSQSLQSQFEQLEKAYQDNLHLLSPKQKLIIQEAGKIIQQLPQQAQIQAKVNLYQSLSAEISKESQQ,-0.107
28,HMTQTDINQIETLVHEGNKLAAVKLLMDTAHIGLKEAKDIIDNFFLGKQTDLQAAVAQVQTR,-0.722
